Laboratory results as given in patent US20090149389A1 (PURDUE RESEARCH FOUNDATION, published 2009).
Where no end group is shown, it is not given here. [ ]: non-standard residue; d: D form.

Key:
MAPKAP kinase II (MK2) [1] = target: T1, MAPKAP kinase II (MK2) (UniProt P49137 1-400, limits assumed); experiment: cell-based or functional assay
MAPKAP kinase II (MK2) [2] = target: T1, MAPKAP kinase II (MK2); experiment: cell-based or functional assay; remark: listed apart in the source

T1 sequence (P49137 whole entry): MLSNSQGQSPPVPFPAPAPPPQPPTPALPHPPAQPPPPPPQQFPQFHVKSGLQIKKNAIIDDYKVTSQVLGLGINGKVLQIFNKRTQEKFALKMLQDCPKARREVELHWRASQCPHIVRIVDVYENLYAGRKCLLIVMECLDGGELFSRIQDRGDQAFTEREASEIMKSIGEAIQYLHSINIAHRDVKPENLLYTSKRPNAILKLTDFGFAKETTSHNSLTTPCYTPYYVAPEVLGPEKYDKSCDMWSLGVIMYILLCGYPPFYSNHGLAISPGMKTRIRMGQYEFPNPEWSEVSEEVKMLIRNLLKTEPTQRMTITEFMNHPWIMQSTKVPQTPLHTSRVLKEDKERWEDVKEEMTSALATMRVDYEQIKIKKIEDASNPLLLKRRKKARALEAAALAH

| Binder | % of Blank Reaction Velocity at an Inhibitor Concentration of 6.25pN (MAPKAP kinase II (MK2) [1]) | % of … [SEQ ID NO: 124] Reaction Velocity at an Inhibitor Concentration of 100 µM (MAPKAP kinase II (MK2) [2]) |
| --- | --- | --- |
| WLRRIKAWLRRIKALNRQLAVA | -2.1% | – |
| WLRRIKAWLRRIKALARQLGVA | 3.9% | – |
| KALNRQ[dL]GVAA [KALNRQdLGVAA] | – | 357% |
| KALNRQLGVA | – | 100% |
| KALNRQAGVAA | – | 118% |
| KKKALNRQLGVAA | – | 91% |
| WLKKIKAWLKKIKALNRQLGVVA | – | -32% |
| KALNRQLGAAA | – | 373% |
| KALNRQLAVAA | – | 72% |
| WLRRIKAWLRRIKALARQLAVA | 3.3% | – |
| KALNAQLGVAA | – | 358% |
| KAANRQLGVAA | – | 152% |
| KALNRALGVAA | – | 358% |
| KALNRQLGVAA | – | 100% |
| WLRRIKAWLRRIKKKALARQLAVA | 1% | – |
